Measurements: paper PMC12443467, “A phosphoserine phosphatase variant present in the brain of Alzheimer's disease patients favors nuclear mistargeting” (The Febs Journal, 2025)

Tests used:
[1] = molecular target: T1, wtPSP (human phosphoserine phosphatase, PSP) (Homo sapiens, UniProt P78330); assay: PNP-coupled phosphate release assay; assay type: biochemical
T1 construct: gene PSPH; recombinant human PSP with His-tag, plasmid pET28_hPSP, E. coli BL21(DE3), Talon purification, homodimer (54 kDa expected; 53 kDa by SEC)
T1 sequence (P78330 1-225): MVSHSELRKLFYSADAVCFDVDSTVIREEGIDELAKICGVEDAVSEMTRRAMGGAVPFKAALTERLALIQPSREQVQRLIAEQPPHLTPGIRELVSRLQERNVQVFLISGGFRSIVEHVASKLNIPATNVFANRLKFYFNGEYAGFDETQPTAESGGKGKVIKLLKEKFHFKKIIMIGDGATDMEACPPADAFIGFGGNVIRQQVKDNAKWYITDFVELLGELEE
Excerpt: (§1) PNP-coupled phosphate release assay on wtPSP (human phosphoserine phosphatase, PSP)

[2] = molecular target: T2, wtPSP (human phosphoserine phosphatase, PSP) (Homo sapiens, UniProt P78330, D32G); assay: PNP-coupled phosphate release assay; assay type: biochemical
T2 construct: gene PSPH; recombinant human PSP with His-tag, plasmid pET28_hPSP, E. coli BL21(DE3), Talon purification, homodimer (54 kDa expected; 53 kDa by SEC)
T2 sequence (P78330 1-225 D32G): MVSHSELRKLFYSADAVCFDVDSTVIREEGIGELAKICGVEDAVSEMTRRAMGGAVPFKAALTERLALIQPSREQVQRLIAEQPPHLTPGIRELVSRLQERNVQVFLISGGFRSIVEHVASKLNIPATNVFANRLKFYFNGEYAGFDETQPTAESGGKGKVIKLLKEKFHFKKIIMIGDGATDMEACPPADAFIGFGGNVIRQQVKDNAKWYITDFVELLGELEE
Excerpt: as §1

[3] = molecular target: T3, wtPSP (human phosphoserine phosphatase, PSP) (Homo sapiens, UniProt P78330, R27S); assay: PNP-coupled phosphate release assay; assay type: biochemical
T3 construct: gene PSPH; recombinant human PSP with His-tag, plasmid pET28_hPSP, E. coli BL21(DE3), Talon purification, homodimer (54 kDa expected; 53 kDa by SEC)
T3 sequence (P78330 1-225 R27S): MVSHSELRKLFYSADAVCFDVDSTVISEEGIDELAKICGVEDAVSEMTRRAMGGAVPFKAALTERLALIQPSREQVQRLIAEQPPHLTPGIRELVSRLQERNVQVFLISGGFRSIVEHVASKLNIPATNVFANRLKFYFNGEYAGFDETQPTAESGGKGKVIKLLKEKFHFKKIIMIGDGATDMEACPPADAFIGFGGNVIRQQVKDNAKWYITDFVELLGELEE
Excerpt: as §1

[4] = molecular target: T4, wtPSP (human phosphoserine phosphatase, PSP) (Homo sapiens, UniProt P78330, D32G/R27S); assay: PNP-coupled phosphate release assay; assay type: biochemical
T4 construct: gene PSPH; recombinant human PSP with His-tag, plasmid pET28_hPSP, E. coli BL21(DE3), Talon purification, homodimer (54 kDa expected; 53 kDa by SEC)
T4 sequence (P78330 1-225 R27S/D32G): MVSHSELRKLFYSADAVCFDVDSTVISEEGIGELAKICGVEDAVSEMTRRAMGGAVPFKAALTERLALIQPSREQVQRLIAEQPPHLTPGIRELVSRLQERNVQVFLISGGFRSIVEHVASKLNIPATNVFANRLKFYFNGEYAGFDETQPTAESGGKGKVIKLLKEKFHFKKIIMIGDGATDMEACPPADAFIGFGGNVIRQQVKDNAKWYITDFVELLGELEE
Excerpt: as §1

[5] = molecular target: T1, wtPSP (human phosphoserine phosphatase, PSP); assay: SAT-coupled continuous assay of L-Ser production (DTNB, […] nm type read-out); assay type: biochemical; settings: 3 mM MgCl2, 50 mM Hepes, 100 mM KCl, pH 7, 37 °C; 12 nM enzyme
[6] = substrate: N[C@@H](COP(=O)(O)O)C(=O)O; assay: SAT-coupled continuous assay of L-Ser production; assay type: biochemical, Homo sapiens; settings: 3 mM MgCl2, 50 mM Hepes, 100 mM KCl, pH 7, 37 °C
Excerpt: SAT-coupled continuous assay of L-Ser production on wtPSP (human phosphoserine phosphatase, PSP)

Molecule: N[C@@H](CO)C(=O)O [L-Ser]
- IC50 [1]: 273 ± 31 µM
- IC50 [2]: 746 ± 26 µM
- IC50 [3]: 171 ± 15 µM
- IC50 [4]: 523 ± 74 µM

Molecule: N[C@@H](COP(=O)(O)O)C(=O)O [3-PS]
- Km [5]: 42 ± 12 µM

B1: wtPSP (human phosphoserine phosphatase, PSP) (Homo sapiens; R27S) (protein)
chain: MVSHSELRKLFYSADAVCFDVDSTVISEEGIDELAKICGVEDAVSEMTRRAMGGAVPFKAALTERLALIQPSREQVQRLIAEQPPHLTPGIRELVSRLQERNVQVFLISGGFRSIVEHVASKLNIPATNVFANRLKFYFNGEYAGFDETQPTAESGGKGKVIKLLKEKFHFKKIIMIGDGATDMEACPPADAFIGFGGNVIRQQVKDNAKWYITDFVELLGELEE
notes: recombinant human PSP with His-tag, plasmid pET28_hPSP, E. coli BL21(DE3), Talon purification, homodimer (54 kDa expected; 53 kDa by SEC)
- Km ([6]; 12 nM enzyme): 50 ± 3 µM
- kcat ([6]; 12 nM enzyme): 39 ± 1 s⁻¹
- kcat/Km ([6]; 12 nM enzyme): 780000 M⁻¹ s⁻¹

B2: wtPSP (human phosphoserine phosphatase, PSP) (Homo sapiens; D32G) (protein)
chain: MVSHSELRKLFYSADAVCFDVDSTVIREEGIGELAKICGVEDAVSEMTRRAMGGAVPFKAALTERLALIQPSREQVQRLIAEQPPHLTPGIRELVSRLQERNVQVFLISGGFRSIVEHVASKLNIPATNVFANRLKFYFNGEYAGFDETQPTAESGGKGKVIKLLKEKFHFKKIIMIGDGATDMEACPPADAFIGFGGNVIRQQVKDNAKWYITDFVELLGELEE
notes: as for B1
- Km ([6]; 180 nM enzyme): 53 ± 5 µM
- kcat ([6]; 180 nM enzyme): 2.3 ± 0.1 s⁻¹
- kcat/Km ([6]; 180 nM enzyme): 43400 M⁻¹ s⁻¹

B3: wtPSP (human phosphoserine phosphatase, PSP) (Homo sapiens; D32G/R27S) (protein)
chain: MVSHSELRKLFYSADAVCFDVDSTVISEEGIGELAKICGVEDAVSEMTRRAMGGAVPFKAALTERLALIQPSREQVQRLIAEQPPHLTPGIRELVSRLQERNVQVFLISGGFRSIVEHVASKLNIPATNVFANRLKFYFNGEYAGFDETQPTAESGGKGKVIKLLKEKFHFKKIIMIGDGATDMEACPPADAFIGFGGNVIRQQVKDNAKWYITDFVELLGELEE
notes: as for B1
- Km ([6]; 180 nM enzyme): 75 ± 12 µM
- kcat ([6]; 180 nM enzyme): 2.2 ± 0.1 s⁻¹
- kcat/Km ([6]; 180 nM enzyme): 29300 M⁻¹ s⁻¹
